Test: yeast display, Sf9 membrane polyspecificity reagent, FACS + sequencing; frameworks hold sequencing errors
Procedure, shortened: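 Galactose induction of a Saccharomyces cerevisiae BJ5465 synthetic nanobody display library ran 36–48 hours. The cells were then stained for 1 hour at 4 °C with 10% biotinylated, detergent-solubilized Sf9 membrane reagent, pulled down on streptavidin microbeads and FACS-sorted into low and high (top ~1%) gates on expression and reagent-binding fluorescence. Labels for polyreactivity follow the gate of origin.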
With “QVQLVESGGALVQAGGSLRLSSAASGLTFYYYAMGRYRQAPGKERELVAAITGSGGRTYYADSVKGRFTISRDNAKNNVYLQMNSLKPEDTAVYYCAASWPNYLYEYWGQGTQVTVSS” the “polyreactivity (PSR sort gate)” value was “high polyreactivity”. With “QVQLVESGGALVQAGGSLRLTSAASGFTFFRNAMRWYRQAPGKERELVAAINWSGGSTYYADSVKGRFTISRDNAKNTVYLQMHSLKPEDTAVYFCAADLSSTESDYWRQGTQVTVSS” the “polyreactivity (PSR sort gate)” value was “high polyreactivity”. In the case of “QVQLVESGGALVQAGVSLRLSCSASGSTFTKYAIRWYRQAPGKERELVAAITRGGSTTYADSVKGRFTISRDNAKNTVYLQMNSLKPEDTAVYFCNAQYQSGYYTSYPERFDYRGQGTQVTVSS”, the “polyreactivity (PSR sort gate)” value is reported as “low polyreactivity”. For “QVQLVESGGCIVQAGGSLRFSCAASGFTFNRYAMGWYRQAPGKERELVAAITRRGGSTYYADSVKGRFTISRDNAKNTVYFQMNSLKPEDTAVYYCNVDFQAYGIPMDYWGQGTQVNVSS”, the “polyreactivity (PSR sort gate)” value was “high polyreactivity”. With “QVQLVESGGCLDQAGGSLRLSSAASGRIFFGYAMGWYRQAPGKEREFVAAISSVGSTNYADSVKGRFTISRDNAKNTVYLQMNSLKPEDTAVYYCAAAPRSGGKYGSDGGDYWGQGTQVTVSS” the “polyreactivity (PSR sort gate)” value was “low polyreactivity”. For “QVQLVESGGCLLQAGGSLRLSCAASGYIFERNAMGWYRQAPGKERELVAAITDDGDDTYYADSVKGRFTISRDNEKNTVYLQMNSLKPEDTAVYYCAKDLYYGDYYYWGQGTQVTVSS”, the “polyreactivity (PSR sort gate)” value was “low polyreactivity”. For “QVQLVESGGCLVKAGCSLRLSCAASGRIFFVNAMGWYRPAPGKECELVAAISRGGSTNYADSVKGRFTISRDNAMNTVYLQMNILKPEDTEVYYCAAGYVRYPGVIDEYWGPGTQVTVSS”, the “polyreactivity (PSR sort gate)” value was “low polyreactivity”. With “QVQLVESGGCLVQAGCSGRLSCAASGYTLTINVMGWDRQAPGKERELVAAITTSCASTNYADSVKGRFTISRDNAKNSVYLKMNSLKPEDTSVYYCAADYLSFVVVKLYGYWGQRTQVTVSS” the “polyreactivity (PSR sort gate)” value was “low polyreactivity”. With “QVQLVESGGCLVQAGCSLSLSCAASGITFRPYAMGWYRQAPGKERELVAAIRWDGGSTYYADSVKGRFTISRDNAKNTVYLQMNSMKPEDTAVDYCAAKRPTHVRKMDYWGQGTQVTVSS” the “polyreactivity (PSR sort gate)” value was “high polyreactivity”. For “QVQLVESGGCLVQAGGRLRLICAASGRTFFFNAMGWYRQAPGKERELVAAISRGGSRTFYADSVKGRFTISRDNEKNTVYLQMNSLKPEDNAVYYCNDVAQSGRYDYWGQGTQVTVSS”, the “polyreactivity (PSR sort gate)” value was “high polyreactivity”. For “QVQLVESGGCLVQAGGRLRLSCAASGRIFRGYAMGWYRQAPGKERELVARITSGGRTYYADSVKGRFTISRDNAKNTVYLQMNSLKPEDTAVYYCAAPPSVRTRKAYYYWGQGTQVTVSS”, the “polyreactivity (PSR sort gate)” value was “high polyreactivity”. With “QVQLVESGGCLVQAGGRLRLSCAASGYIFDRNAMGWYRQAPGTERELVAAITKRGGITYYADSVKGRFTISRDNAKFSGYLQMNSLKPEDTAVYYCNALARSSRYDYWGQGTQVTVSS” the “polyreactivity (PSR sort gate)” value was “low polyreactivity”. In the case of “QVQLVESGGCLVQAGGSHRLSCAASGYIVWENAMGWYRPAPGKERELVAAITVTGGGTYYADSVKGRFTISRDNSKNPGYLHMNSLKPEDTAVYYCAPDEDNPWLWFYYWGQGTQVTVSS”, the “polyreactivity (PSR sort gate)” value is reported as “low polyreactivity”. With “QVQLVESGGCLVQAGGSHRLSCASSGRTFYRKAMGWYRQAPGKERELVAAISSGTSTNYADSVKGRFTISRDYAKNTVYLQMNSLKPEDTAVYYCAKERPRGAPAYYSRFYDYWGQGTQVTVSS” the “polyreactivity (PSR sort gate)” value was “high polyreactivity”. In the case of “QVQLVESGGCLVQAGGSIRLSCAASGSIFKSNAMGWYRQAPGKERELVAAISNGGITNYADSVKVRFTISRDNAKNTDYLQMNSLKPEDTAVYYCNARNNYWWYCPGYDYWGQGTQLTVSS”, the “polyreactivity (PSR sort gate)” value is reported as “low polyreactivity”. With “QVQLVESGGCLVQAGGSLGLSCAASGFSFLEYAKGWYRQAPGKERELVAVISRRGGRTYYADSVKGRFTISRDNAKITVFLQMNSLNPEDTEVYYWNARISGCVWHYDYWGQGTQVTVSS” the “polyreactivity (PSR sort gate)” value was “high polyreactivity”. With “QVQLVESGGCLVQAGGSLPLSCAASGIIFAQYVMGWYIQATGKESELVAAIRTSGGRTYYADSVKGRFTISRDNSKNTVYLQMNSLKPEDTAVYYCAAYGKPTFRSVDYWGQGTQVTVSS” the “polyreactivity (PSR sort gate)” value was “high polyreactivity”. For “QVQLVESGGCLVQAGGSLRLICAASGIIFWGYFMGWYRQAPAKERELVAAISRGGRTYYADSVKGRFTISRDNAKNTVYLQMNSLKPEDTAVDYCAARWGRSYLPQPFQFEYDYWGQGTQVTVSS”, the “polyreactivity (PSR sort gate)” value was “high polyreactivity”. With “QVQLVESGGCLVQAGGSLRLRGAASGRIFGYYAMGWYRQAPGKEWELVAAISRGGSTNYADSVKGRFTISRDNAKNTVYLQMNSLKPEDTAVYYCAAVQRTHPRYYYWGQGTQVTVSS” the “polyreactivity (PSR sort gate)” value was “high polyreactivity”. For “QVQLVESGGCLVQAGGSLRLSCAASGFIFRQYAMGWYRQAPGKERELVAAISTGGGRTYYADSVKGRFTISRDNAKNTVYLQMNSLKPEDTAVYYCAAGYPYSYRDYYYWGQGTQVTVSS”, the “polyreactivity (PSR sort gate)” value was “high polyreactivity”. For “QVQLVESGGCLVQAGGSLRLSCAASGFIFRWYAMGWYRQAPGKERELVAAISLGGSTNYADSVKGRFTISRDNAKNTVYLQMNSLKPEDTAVYYCNARYVSYSGRYVIGQYVKYDYWGKGTQVTVSS”, the “polyreactivity (PSR sort gate)” value was “high polyreactivity”. In the case of “QVQLVESGGCLVQAGGSLRLSCAASGFIFWDYAMGWYRQAPGKERELVAAISDSGGDKYYADSVKGRFTISRDNAKNTVYLQMNSLKPEDTAVYYCAADVELWVFRGQQYDYWGQGTQVTVSS”, the “polyreactivity (PSR sort gate)” value is reported as “low polyreactivity”. In the case of “QVQLVESGGCLVQAGGSLRLSCAASGFTFHDYAMGWYRQAPGKERELVAAITKSGGRTYYADSVKGRFTISRDNAQNTVYLQMNSLKPVDTAVYYRAAKSYWGQVTQVTVSS”, the “polyreactivity (PSR sort gate)” value is reported as “high polyreactivity”. In the case of “QVQLVESGGCLVQAGGSLRLSCAASGFTFHNNVMGWYRQAPGKDRELVATISKSGGSTYYADSEKGRFTISRDNAKNTVYLQMNSLKPEDTAVYYCDRRYRYYGRYGYWGQGTQVTVSS”, the “polyreactivity (PSR sort gate)” value is reported as “high polyreactivity”. In the case of “QVQLVESGGCLVQAGGSLRLSCAASGGTFRGYAMGWYRQAPGKETELVAASSTSGSRTSYADSVKGRFTISRDNAKNTVYLQMNSLKPEDNAVYYCNADPIHGVYSRFRLGGYWGQGTQVTVSS”, the “polyreactivity (PSR sort gate)” value is reported as “high polyreactivity”. For “QVQLVESGGCLVQAGGSLRLSCAASGITFKYYVMGWYRQAPGKEREFVAAISWGGGSPYYADSVKGRCTISRDNAKNTVYVQMNSLKPEDTAVYYCAATSAYGRYRYYYWGQGTQVTVSS”, the “polyreactivity (PSR sort gate)” value was “high polyreactivity”. For “QVQLVESGGCLVQAGGSLRLSCAASGLIFYRYAMGWYRQAPGKERELVAAISWSGGTTYYADSVKGRFTISRDNAKNSVYLQMNSLKPEDTAVYYCAADAVYYHFDYWGQGTQVTVSS”, the “polyreactivity (PSR sort gate)” value was “high polyreactivity”. In the case of “QVQLVESGGCLVQAGGSLRLSCAASGLTFGSNAMGWYRQAPGKERELVAAISSTGSTYYADSVKGRFTISRDNAKNTVYLQMNSLKPEDTAVYYCAAYDYWGQGTQVTVSS”, the “polyreactivity (PSR sort gate)” value is reported as “low polyreactivity”. For “QVQLVESGGCLVQAGGSLRLSCAASGNTFWVNSMGWYRQAPGKERELVAGITSSGDSTSYADSVKGRFTISRDNAKNTVYLQMNSLKPEDTAVYYCAADVGGFWYTEYYWGQGTQVTVSS”, the “polyreactivity (PSR sort gate)” value was “high polyreactivity”. With “QVQLVESGGCLVQAGGSLRLSCAASGRIFPGYAMGWYRQAPGKESEFVAAITASGGTTYYADSVKGRFTISRDNAKNTVYLQMNCLKPEDTAVYYCAKYRYTVAGYNYWGQGTQVTVSS” the “polyreactivity (PSR sort gate)” value was “high polyreactivity”.
